{
  "source": "paper PMC4739419",
  "about": "“Mutations in the nucleotide binding and hydrolysis domains of Helicobacter pylori MutS2 lead to altered biochemical activities and inactivation of its in vivo function” (BMC Microbiology, 2016)",
  "key": {"[1]": {"target": "the molecule itself", "assay": "SEC; Superose-6 HR 10/30, buffer B (50 mM Tris pH 8.0, 100 mM NaCl), 0.3 ml/min, approximately 150 ug protein injected; mass from a plot of Ve/Vo versus log of molecular mass of standards"}, "H. pylori strain 26695": {"tested_on": "H. pylori strain 26695", "assay": "Recombination assay (incorporation of streptomycin resistant chromosomal DNA)", "type": "cell-based, Helicobacter pylori", "details": "for fold higher recombination / transformation frequency than the wild-type strain: HpMutS2-E413A over-expressed in the wild-type strain", "experimental": "The construction of hpmutS2-disrupted strain, complements, and calculations of recombination frequencies were performed as described in [7]. Briefly, H. pylori strain 26695 was used to disrupt hpmutS2 gene by allelic replacement using a chloramphenicol resistance cassette and to generate integrations. The wild-type and mutants of HpMutS2 preceded by ureA promoter and containing an apramycin resistance cassette were integrated into a non-essential ureA locus. The correct constructions were verified by PCR and the expression of proteins was monitored by Western blots. Recombination frequencies were determined by rate of incorporation of streptomycin resistant isogenic total chromosomal DNA (200 ng) per cfu. P values were calculated using the Mann–Whitney U test. At least two independent clones of each construction were used to determine the recombination frequencies. All DNA constructs were introduced using natural transformation. H. pylori was grown on BAB plates at 37 °C under microaerophillic conditions."}},
  "data": [
    {"molecule": "HpMutS2-E413A (enzyme, also called Walker-B mutant) MSDAPKRSLNPTLMMNNNNTPPKPLEESLDLKEFIALFKTFFAKERDTIALENDLKQTFTYLNEVDAIGLPTPKSVKESDLIIIKLTKLGTLHLDEIFEIVKRLHYIVVLQNAFKTFTHLKFHERLNAIVLPPFFNDLIALFDDEGKIKQGANATLDALNESLNRLKKESVKIIHHYARSKELAPYLVDTQSHLKHGYECLLLKSGFSGAIKGVVLERSANGYFYLLPESAQKIAQKIAQIGNEIDCCIVEMCQTLSHSLQKHLLFLKFLFKEFDFLDSLQARLNFAKAYNLEFVMPSFTQKKMILENFSHPILKEPKPLNLKFEKSMLAVTGVNAGGKTMLLKSLLSAAFLSKHLIPMKINAHHSIIPYFKEIHAIINDPQNSANNISTFAGRMKQFSALLSKENMLLGVDAIELGTDADEASSLYKTLLEKLLKQNNQIIITTHHKRLSVLMAENKEVELLAALYDEEKERPTYTFLKGVIGKSYAFETALRYGVPHFLIEKAKTFYGEDKEKLNVLIENSSALERELKQKNEHLENALKEQEYLKNAWLLEMEKQKEIFHNKKLELEKSYQQALNILKSEVASKDTSSMHKEIHKASEILSKHKTNQEIPQIITNFQANEKARYKNESVLIVQILDKGYYWIETELGMRLKAHGSLLKKIQKPPKNKFKPPKTTIPKPKEASLRLDLRGQRSEEALDLLDAFLNDALLGGFEEVLICHGKGSGILEKFVKEFLKNHPKVVSFSDAPINLGGSGVKIVKL", "values": [
      {"measurement": "binding result", "setting": "[1]", "result": "binds"},
      {"measurement": "fold higher recombination / transformation frequency than the wild-type strain", "setting": "H. pylori strain 26695", "result": "~ 5 fold"}
    ]},
    {"molecule": "HpMutS2: Helicobacter pylori MutS2 (1-762), C-terminally His6-tagged wild-type protein, nuclease and ABC ATPase (protein, left off: His6, C-terminal, state not stated, Helicobacter pylori MutS2 (1-762), C-terminally His6-tagged wild-type protein, nuclease and ABC ATPase) MSDAPKRSLNPTLMMNNNNTPPKPLEESLDLKEFIALFKTFFAKERDTIALENDLKQTFTYLNEVDAIGLPTPKSVKESDLIIIKLTKLGTLHLDEIFEIVKRLHYIVVLQNAFKTFTHLKFHERLNAIVLPPFFNDLIALFDDEGKIKQGANATLDALNESLNRLKKESVKIIHHYARSKELAPYLVDTQSHLKHGYECLLLKSGFSGAIKGVVLERSANGYFYLLPESAQKIAQKIAQIGNEIDCCIVEMCQTLSHSLQKHLLFLKFLFKEFDFLDSLQARLNFAKAYNLEFVMPSFTQKKMILENFSHPILKEPKPLNLKFEKSMLAVTGVNAGGKTMLLKSLLSAAFLSKHLIPMKINAHHSIIPYFKEIHAIINDPQNSANNISTFAGRMKQFSALLSKENMLLGVDEIELGTDADEASSLYKTLLEKLLKQNNQIIITTHHKRLSVLMAENKEVELLAALYDEEKERPTYTFLKGVIGKSYAFETALRYGVPHFLIEKAKTFYGEDKEKLNVLIENSSALERELKQKNEHLENALKEQEYLKNAWLLEMEKQKEIFHNKKLELEKSYQQALNILKSEVASKDTSSMHKEIHKASEILSKHKTNQEIPQIITNFQANEKARYKNESVLIVQILDKGYYWIETELGMRLKAHGSLLKKIQKPPKNKFKPPKTTIPKPKEASLRLDLRGQRSEEALDLLDAFLNDALLGGFEEVLICHGKGSGILEKFVKEFLKNHPKVVSFSDAPINLGGSGVKIVKL", "values": [
      {"measurement": "fold higher recombination / transformation frequency than the wild-type strain", "setting": "H. pylori strain 26695", "result": "~ 8 fold"},
      {"measurement": "Relative value (recombinant frequency relative to Wt)", "setting": "H. pylori strain 26695; Wt = 1", "result": 7.9},
      {"measurement": "Recombinant frequency", "setting": "H. pylori strain 26695; streptomycin resistance colonies per recipient cfu, average (±standard deviation)", "result": "39.2 (±29.2) x10^−4"}
    ]}
  ]
}
